Common to all, as to experiment: cell-based or functional assay
One test concerns the target T1, human Y1 receptor (human, UniProt P25929 1-384).
T1 sequence (looked up): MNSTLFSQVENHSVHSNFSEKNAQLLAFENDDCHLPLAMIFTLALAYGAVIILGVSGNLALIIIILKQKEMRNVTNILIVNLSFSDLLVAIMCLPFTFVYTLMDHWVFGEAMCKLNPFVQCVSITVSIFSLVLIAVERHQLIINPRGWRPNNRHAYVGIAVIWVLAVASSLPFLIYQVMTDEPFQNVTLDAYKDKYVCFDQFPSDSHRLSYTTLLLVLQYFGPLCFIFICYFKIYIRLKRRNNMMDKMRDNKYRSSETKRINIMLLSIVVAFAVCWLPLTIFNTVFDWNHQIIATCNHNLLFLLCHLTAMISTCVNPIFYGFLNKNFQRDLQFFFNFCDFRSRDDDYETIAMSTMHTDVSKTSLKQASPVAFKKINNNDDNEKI

The target in a further test is T2, human Y2 receptor (human, UniProt P49146 1-381).
T2 sequence (looked up): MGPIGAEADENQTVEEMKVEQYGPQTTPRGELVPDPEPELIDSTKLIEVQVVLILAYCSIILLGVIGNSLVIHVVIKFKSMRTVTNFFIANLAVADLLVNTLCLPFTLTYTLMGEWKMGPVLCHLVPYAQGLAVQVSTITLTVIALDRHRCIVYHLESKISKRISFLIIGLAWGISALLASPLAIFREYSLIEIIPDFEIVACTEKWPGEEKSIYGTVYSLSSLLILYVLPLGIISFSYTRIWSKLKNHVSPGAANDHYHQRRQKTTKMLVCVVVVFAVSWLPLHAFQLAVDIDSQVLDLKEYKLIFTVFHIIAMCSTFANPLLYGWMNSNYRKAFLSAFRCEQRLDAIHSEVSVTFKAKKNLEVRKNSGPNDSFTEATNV

The target of another test is human Y4 receptor (human, UniProt P50391 1-375).
human Y4 receptor, sequence (P50391 whole entry): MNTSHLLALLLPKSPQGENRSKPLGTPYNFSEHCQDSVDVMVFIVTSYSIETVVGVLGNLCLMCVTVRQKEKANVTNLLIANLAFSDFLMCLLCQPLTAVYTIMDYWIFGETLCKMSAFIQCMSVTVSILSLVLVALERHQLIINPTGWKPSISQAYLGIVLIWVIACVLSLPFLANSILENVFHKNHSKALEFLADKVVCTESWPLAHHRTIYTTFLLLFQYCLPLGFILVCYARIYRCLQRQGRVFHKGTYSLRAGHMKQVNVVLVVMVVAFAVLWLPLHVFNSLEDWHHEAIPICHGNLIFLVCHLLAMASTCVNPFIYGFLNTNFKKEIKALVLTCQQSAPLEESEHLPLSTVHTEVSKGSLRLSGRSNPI

Where no end group is shown, it is not given here. A value given as a limit tells only on which side of the number the result lay.

PLEPVYPGDNATPEQMAQYAADLRRYINTLTRPRY-NH2 [[Thr30]PP2-36]: in the test with human Y1 receptor, the “EC50, inositol phosphate turnover in transfected COS-7 cells (hY1 potency assay)” value (from here on “EC50 … (hY1 potency assay)”) is above 1000 nM. Also, in the test with human Y2 receptor, the “EC50, inositol phosphate turnover in transfected COS-7 cells (hY2 potency assay)” value (from here on “EC50 … (hY2 potency assay)”) is above 1000 nM. Further, in the test with human Y4 receptor, the “EC50, inositol phosphate turnover in transfected COS-7 cells (hY4 potency assay)” value (from here on “EC50 … (hY4 potency assay)”) was found to be 1.07 nM.

Take PLEPVYPGDNATPEQMAQYAADLRRYINQLTRPRY-NH2 [[Gln30]PP2-36]: the “EC50 … (hY1 potency assay)” value with human Y1 receptor was above 1000 nM. The “EC50 … (hY2 potency assay)” value with human Y2 receptor is above 1000 nM. The “EC50 … (hY4 potency assay)” value with human Y4 receptor is 0.99 nM.

As to PLEPVYPGDNATPEQMAQYAADLRRYINNLTRPRY-NH2 [[Asn30]PP2-36], in the test with human Y1 receptor, the “EC50 … (hY1 potency assay)” value was above 1000 nM. Moreover, in the test with human Y2 receptor, the “EC50 … (hY2 potency assay)” value is above 1000 nM. Besides, in the test with human Y4 receptor, the “EC50 … (hY4 potency assay)” value amounted to 3.05 nM.

Consider PLEPVYPGENATPEQMAQYAADLRRYINMLTRPRY-NH2 [[Glu10]PP2-36], for which the “EC50 … (hY1 potency assay)” value with human Y1 receptor came to 564 nM. For the same molecule, in the test with human Y2 receptor, the “EC50 … (hY2 potency assay)” value is above 1000 nM. Moreover, in the test with human Y4 receptor, the “EC50 … (hY4 potency assay)” value is 0.91 nM.

For PLEPVYPGDNATPEQMAQYAADLRRYINALTRPRY-NH2 [[Ala30]PP2-36], in the test with human Y1 receptor, the “EC50 … (hY1 potency assay)” value is above 1000 nM. Further, the “EC50 … (hY2 potency assay)” value with human Y2 receptor was above 1000 nM. Also, the “EC50 … (hY4 potency assay)” value with human Y4 receptor worked out at 1.04 nM.

Take PLEPVYPGENATPEQLAQYAADLRRYINTLTRPRY-NH2 [[Glu10, Leu17, Thr30]PP2-36]: the “EC50 … (hY1 potency assay)” value with human Y1 receptor is above 1000 nM. Also, the “EC50 … (hY2 potency assay)” value with human Y2 receptor is above 1000 nM. In addition, the “EC50 … (hY4 potency assay)” value with human Y4 receptor came out at 1.07 nM.

(Values after patent US20090118178A1 (7TM PHARMA A S, published 2009).)
